Reference: patent US20130217145A1 (published 2013)

Experiments:
Test in all cases: FCS competition against 2 nM Alexa488-PIVKAII (13-27) premixed with 10 nM mAb 3C10
[1] = biological target: T1, Gla domain Protein Z sequence 16 peptide
T1 construct: Homologous series peptide; also called PIVKAII Gla domain (13-27) analog, Protein Z
T1 peptide: LEKECYEEICVYEEA
Method: (§1) FCS measurements were performed on each sample after overnight incubation.

[2] = biological target: T2, Gla domain Factor VII sequence 13 peptide
T2 construct: Homologous series peptide; also called PIVKAII Gla domain (13-27) analog, Factor VII
T2 peptide: LERECKEEQCSFEEA
Method: as §1

[3] = biological target: T3, Gla domain Protein S sequence 15 peptide
T3 construct: Homologous series peptide; also called PIVKAII Gla domain (13-27) analog, Protein S
T3 peptide: LERECIEELCNKEEA
Method: as §1

[4] = biological target: T4, Gla domain Factor X sequence 12 peptide
T4 construct: Homologous series peptide; also called PIVKAII Gla domain (13-27) analog, Factor X
T4 peptide: LERECMEETCSYEEA
Method: as §1

[5] = biological target: T5, Gla domain Protein C sequence 14 peptide
T5 construct: Homologous series peptide; also called PIVKAII Gla domain (13-27) analog, Protein C
T5 peptide: LERECIEEICDFEEA
Method: as §1

[6] = biological target: T6, Gla domain Factor IX sequence 11 peptide
T6 construct: Homologous series peptide; also called PIVKAII Gla domain (13-27) analog, Factor IX
T6 peptide: LERECMEEKCSFEEA
Method: as §1

Measured: binding result

B1: Anti-PIVKA-II monoclonal antibody 3C10 (antibody, V domains shown)
VH: EVQLVESGGDLVKPGGSLKLSCAASGFTFSSYGMSWVRQTPDKRLEWVATISRGGSSTYYPDSVKGRFTISRDNAKNNLYLQMSSLKSEDTAMYYCASLNYGNFFDYWGQGTTLTVSS
VL: DVVMTQTPLSLPVSLGDQASISCRSSQSLVHSNGNTYLHWYLQKPGQSPKLLIYKVSNRFSGVPDRFSGSGSGTDFTLKISRVEAEDLGVYFCSQNRHVPPTFGGGTKLEIKR
notes: Mouse hybridoma antibody from a GANP transgenic C57BL/6 mouse; For the Kd measurement the antibody carried Black Hole Quencher (I.R. 2.3); also called mAb 3C10; clone 3C10
no binding: [1] | [2] | [3] | [4] | [5] | [6]
